Assay: label from the status in PepcDB records

Sequence	protein production
MTVPEEAQTLIGKHYRAPDHFLVGREKIREFAVAVKDDHPTHYSEPDAAAAGYPALVAPLTFLAIAGRRVQLEIFTKFNIPINIARVFHRDQKFRFHRPILANDKLYFDTYLDSVIESHGTVLAEIRSEVTDAEGKPVVTSVVTMLGLEHHHHHH	failed
MTVQRREKGSSITRVLEIIEAISRAERPMSPAELAFLLDIPKPSIHRLLQQLEADNYVQINMRGLLVPGDRMHSIALGVLHSSRFKALRQAILKKLAETIGETCGIAIPDGIEMIYYDRVQTNWPLRVNLPVGSHTPVACTASGKLYLSSLPKERRHRIIGKLSLEKLARNTLIESESLEKELINIQANELGTDNEEFIDGMVACSVPIKDQDGKLFACLFTHAPVIRKSLDELLAFEPALRHAAIELGDLLKEQ	failed
MTVSGPGTPEPRPATPGASSVEQLRKEGNELFKCGDYGGALAAYTQALGLDATPQDQAVLHRNRAACHLKLEDYDKAETEASKAIEKDGGDVKALYRRSQALEKLGRLDQAVLDLQRCVSLEPKNKVFQEALRNIGGQIQEKVRYMSSTDAKVEQMFQILLDPEEKGTEKKQKASQNLVVLAREDAGAEKIFRSNGVQLLQRLLDMGETDLMLAALRTLVGICSEHQSRTVATLSILGTRRVVSILGVESQAVSLAACHLLQVMFDALKEGVKKGFRGKEGAIIVDPARELKVLISNLLDLLTEVGVSGQGRDNALTLLIKAVPRKSLKDPNNSLTLWVIDQGLKKILEVGGSLQDPPGELAVTANSRMSASILLSKLFDDLKCDAERENFHRLCENYIKSWFEGQGLAGKLRAIQTVSCLLQGPCDAGNRALELSGVMESVIALCASEQEEEQLVAVEALIHAAGKAKRASFITANGVSLLKDLYKCSEKDSIRIRALVGLCKLGSAGGTDFSMKQFAEGSTLKLAKQCRKWLCNDQIDAGTRRWAVEGLAYLTFDADVKEEFVEDAAALKALFQLSRLEERSVLFAVASALVNCTNSYDYEEPDPKMVELAKYAKQHVPEQHPKDKPSFVRARVKKLLAAGVVSAMVCMVKTESPVLTSSCRELLSRVFLALVEEVEDRGTVVAQGGGRALIPLALEGTDVGQTKAAQALAKLTITSNPEMTFPGERIYEVVRPLVSLLHLNCSGLQNFEALMALTNLAGISERLRQKILKEKAVPMIEGYMFEEHEMIRRAATECMCNLAMSKEVQDLFEAQGNDRLKLLVLYSGEDDELLQRAAAGGLAMLTSMRPTLCSRIPQVTTHWLEILQALLLSSNQELQHRGAVVVLNMVEASREIASTLMESEMMEILSVLAKGDHSPVTRAAAACLDKAVEYGLIQPNQDGE	failed
MTYFFETYGCQMNQAESSSMEQILLEKGWTNSSDAEHCDLLIINTCSVRITAENRVLGRLGHFSGLKKKRKFFVLLIGCMAERLYTEIQKEFPLIDYVVGMFERNLLPQIFDEIKARLKNDNYMAEFTHDNIEEKPVSGYYFAPLSHSPKSFQSYVPIMNGCNNFCTYCIVPYVRGREVSRPVNEILQEITELSSRGVREITLLGQNVNSYKGEDGEGRLIDFPKLLTLIAREADKTDMIRWIRFMSSHPKDMSDALIDTIAAEKRLCKLVHLPVQHGSDTILKRMNRVYTIEHYKNRIKRLKETIPDIALSTDILMGFPGETEDDVKATLDLMQEIEFDSAFMYHYNPREGTKAFNYPDRIPEEVKIERLGRVIDLQLKITAKKMKAKLGKKVDILVESHSRNERSELFGHTEQGEMTVIQGNPPESLIGNFAHAELKELKGKTFRANLN	failed
MTYFLYGNNFSSSILDTISYIIDWIIINMEPITLTLCLLVFAIVMFVWEKVPLAVTSMIVCVALVITGVLNIKQAFAGFIDTNVILFVAMFIVGGALFETGMANKVGGVITRFAKTEKQLIFTIMVVVGLMSGVLSNTGTAAVLIPVVIGVAAKSGFSRSRLLMPLVFAAALGGNLSLIGAPGNLIAQSALQNIGGGFGFFEYAKIGLPMLICGILYFLTIGYRFLPNNATGGEVGSVGEQRDYSHVPQWKQRLSLVVLIATILGMIFEKKIGVSLAVTGCIGALVLVVSGVLTEKQAYKAIDSQTIFIFGGTLALAKALEMTGAGKLVADYVIGMLGQNSSPFMLLIAVFALSVVMTNFMSNTATTALLVPVSLSIAAGMGADPRAVLMATVIGGSCAYATPIGMPANMMVLSAGGYKFVDYAKAGIPLIIVSTIVSLILLPILFPFHP	failed
MTYVLYGIKACDTMKKARTWLDEHKVAYDFHDYKAVGIDREHLRRWCAEHGWQTVLNRAGTTFRKLDEAQKADLDEAKAIELMLAQPSMIKRPVLELGGRTLVGFKPDAYAAALA	not failed

From a protein production outcome set (Wang et al. 2014)
